Measurements published in patent US20180147273A1 (Harvard, published 2018).

Molecular target: T1, VipB protein (Vibrio cholerae, VCA0108) (Vibrio cholerae)
T1 construct: GenBank NP_232509; The experiments used strain 2740-80; also called 55 kDa band; Band A
T1 chain: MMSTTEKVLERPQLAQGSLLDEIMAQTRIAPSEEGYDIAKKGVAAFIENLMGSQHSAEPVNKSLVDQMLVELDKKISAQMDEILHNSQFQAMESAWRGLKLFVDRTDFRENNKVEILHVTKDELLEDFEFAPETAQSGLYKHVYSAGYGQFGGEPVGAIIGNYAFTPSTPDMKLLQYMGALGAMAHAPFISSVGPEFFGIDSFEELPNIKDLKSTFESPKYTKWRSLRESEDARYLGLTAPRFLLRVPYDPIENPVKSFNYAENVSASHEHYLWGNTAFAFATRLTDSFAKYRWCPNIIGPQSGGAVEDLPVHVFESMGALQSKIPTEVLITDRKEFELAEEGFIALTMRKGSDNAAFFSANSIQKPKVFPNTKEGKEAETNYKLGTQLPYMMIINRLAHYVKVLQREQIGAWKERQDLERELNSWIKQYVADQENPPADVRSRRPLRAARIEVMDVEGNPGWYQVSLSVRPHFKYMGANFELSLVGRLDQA
Test: purified sheath separated by SDS-PAGE; bands identified by MS

B1: VipA protein (Vibrio cholerae, VCA0107) (other)
chain: MSKEGSVAPKERINIKYIPATGDAQAEVELPLKTLVVGDFKGHAEQTPLEERATVTVDKNNFEAVMRESELKITATVKNKLTDDENAELPVELNFKSLADFAPDAVASQVPELKKLIELREALVALKGPLGNIPAFRERLQSLLNSEESREKLLAELNLLSGQEEPQA
notes: GenBank NP_232508; The experiments used strain 2740-80; also called WT VipA; 20 kDa band
B1: binds.
